Legend:
[1] = target: T1, human CD3 (CD3 receptor complex on T cells) on Jurkat cells and on human PBMC (human, UniProt P07766 23-207); assay: flow cytometry titration on peripheral blood cells of 3 different donors; peripheral blood cells of 3 different donors; cell-binding titration, KD = 50% binding concentration
T1 construct: whole, on cells; The other chains of the complex are not specified; also called human CD3 domain; CD3 epsilon

[2] = target: T2, recombinant extracellular domain of human 5T4 (soluble, produced in house) (human, UniProt Q13641 32-355); assay: row '5T4-binding (KD)'; ELISA on 5T4 extracellular domain (panel A)
T2 construct: extracellular domain; The signal peptide lies within residues 1-355 and is not part of the secreted protein; also called 5T4-ECD; 5T4 recombinant protein
T2 sequence: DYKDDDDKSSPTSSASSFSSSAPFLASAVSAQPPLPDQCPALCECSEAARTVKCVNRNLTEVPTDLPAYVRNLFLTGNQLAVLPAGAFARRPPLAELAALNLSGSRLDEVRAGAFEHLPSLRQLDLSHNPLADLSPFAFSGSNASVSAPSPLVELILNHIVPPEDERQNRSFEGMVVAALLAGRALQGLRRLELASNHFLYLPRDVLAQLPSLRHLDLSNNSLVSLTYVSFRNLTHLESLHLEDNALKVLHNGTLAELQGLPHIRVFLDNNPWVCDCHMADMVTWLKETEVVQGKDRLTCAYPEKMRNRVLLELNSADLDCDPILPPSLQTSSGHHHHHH
Method: (§1) For Affinity to 5T4 target antigen an ELISA with the 5T4 antigen is used. Target antigen, 5T4 extra cellular domain, produced in house is coated to polystyrene flat bottom 96 well microplate and blocked. Tribody/sample dilutions were prepared in TBS with 0.2% w/v powdered milk, added to the plate and incubated. Following wash steps, detection antibody is added to the samples (anti-human Kappa light chain AP; e.g. Sigma, Cat. No. K4377). Bound detection antibody is measured by development of a colorimetric reaction upon addition of p-NPP (Cat-No: N7653, Sigma) and the absorbance quantified on a micro-well plate reader and processed by non-linear regression using graph Pad Prism software.

[3] = target: T1, human CD3 (CD3 receptor complex on T …); assay: cell binding titration (Abs 405nm) on human PBMC, donor PBMC#2053
[4] = target: T2, recombinant extracellular domain of …; assay: ELISA on 5T4 protein (extracellular domain)
Method: as §1

[5] = target: T1, human CD3 (CD3 receptor complex on T …); assay: cell binding titration (Abs 405nm) on human PBMC, donor printed as PBMC49966
[6] = target: T2, recombinant extracellular domain of …; assay: ELISA on recombinant 5T4 extracellular domain
Method: as §1

[7] = target: T1, human CD3 (CD3 receptor complex on T …); assay: row 'CD3 binding (KD)'; cellular ELISA on Jurkat T-cells (panel B)
Method: For Affinity to the human CD3 domain, a cell based ELISA with a T-cell lymphoma (CD3+) cell line, Jurkat, was used. Jurkat cells are collected, washed and aliquoted into each well of a round-bottom 96 well microplate. Tribody/sample dilutions were prepared in PBS, added to the cells and incubated. Following wash steps, detection antibody is added to the samples (anti-human Kappa light chain AP; e.g. Sigma, Cat. No. K4377). Bound detection antibody is measured by development of a colorimetric reaction upon addition of p-NPP (Cat-No: N7653, Sigma) and the absorbance quantified on a micro-well plate reader and processed by non-linear regression using graph Pad Prism software.

[8] = target: T3, human 5T4 on 5T4-positive tumour cells (MSTO-211H mesothelioma cell line and other tumour cell lines) (human, UniProt Q13641 32-420); assay: FACS titration on MSTO-211H cells (row 'FACS' of the inset table 'Method / KD Tb535H (nM)')
T3 construct: whole, on cells; also called 5T4 antigen; MSTO-211H 5T4-positive mesothelioma cell line
T3 sequence (looked up): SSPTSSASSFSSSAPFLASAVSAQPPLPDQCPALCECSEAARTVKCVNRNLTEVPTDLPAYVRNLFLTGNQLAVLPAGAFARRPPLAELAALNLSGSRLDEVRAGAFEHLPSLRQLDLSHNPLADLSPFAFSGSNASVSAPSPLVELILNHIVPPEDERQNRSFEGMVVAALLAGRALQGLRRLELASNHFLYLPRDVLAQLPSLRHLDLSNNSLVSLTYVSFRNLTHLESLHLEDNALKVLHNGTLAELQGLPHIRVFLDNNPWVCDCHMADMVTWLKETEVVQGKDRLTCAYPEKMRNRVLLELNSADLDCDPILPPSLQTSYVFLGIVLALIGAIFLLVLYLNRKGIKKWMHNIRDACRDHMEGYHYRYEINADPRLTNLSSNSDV
Method: (§2) To access the binding of anti-5T4 molecules (scFv, Fab and Tribody format) to the human 5T4 domain, the biphasic mesothelioma cell line MSTO-211H (ATCC CRL-2081) was tested by FACS binding assay with direct labelled molecules with Allophycocyanin (APC) by the Lightning-Link® APC kit from Innova Biosciences, following the manufacturer instructions.
(§3) Cells are then washed twice with PBS and binding to cell surface is accessed by flow cytometry using a BD FACsalibur apparatus.

[9] = target: T3, human 5T4 on 5T4-positive tumour cells …; assay: cell-based or functional assay
[10] = target: T2, recombinant extracellular domain of …; assay: ELISA on coated 5T4-ECD
Method: as §1

[11] = target: T1, human CD3 (CD3 receptor complex on T …); assay: cell binding titration (Abs 405nm) on human PBMC, donor PBMC#5886
[12] = target: T3, human 5T4 on 5T4-positive tumour cells …; assay: FACS titration on MSTO-211H cells
Method: as §2, §3

T1 sequence (P07766 23-207, one chain of several): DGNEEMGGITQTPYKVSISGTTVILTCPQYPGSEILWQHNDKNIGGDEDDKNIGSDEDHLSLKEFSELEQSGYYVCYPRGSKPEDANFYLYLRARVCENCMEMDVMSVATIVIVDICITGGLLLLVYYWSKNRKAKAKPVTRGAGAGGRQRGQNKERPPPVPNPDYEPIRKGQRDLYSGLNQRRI

B1: Tb535H, humanized 5T4xCD3 Tribody fusion protein (Fab(5T4) with C-terminal dsFv(CD3) and dsFv(5T4)) (bispecific antibody)
chain 1: QVQLVQSGAEVKKPGASVKVSCKASGYSFTSYYMHWVKQSPGQGLEWIGRINPNNGVTLYNQKFKDRVTMTRDTSISTAYMELSRLRSDDTAVYYCARSTMITNYVMDYWGQGTLVTVSSASTKGPSVFPLAPSSKSTSGGTAALGCLVKDYFPEPVTVSWNSGALTSGVHTFPAVLQSSGLYSLSSVVTVPSSSLGTQTYICNVNHKPSNTKVDKKVEPKSCDKTHTGPGGGSPGQVQLVQSGAELKKPGASVKVSCKASGYTFTRYTMHWVRQAPGQCLEWMGYINPSRGYTNYNQKFKDKATLTADKSTSTAYMELRSLRSDDTAVYYCARYYDDHYSLDYWGQGTLVTVSSASGGGGSGGGGSGGGGSAGDIQLTQSPSILSASVGDRVTITCRASSSVSYMNWYQQKPGKAPKRWIYDTSKVASGVPYRFSGSGSGTEYTLTISSMQPEDFATYYCQQWSSNPLTFGCGTKVEIKSG
chain 2: not shown
notes: also called Tb535H-1120; Tb-5T4
[1]
  Kd: ~25 nM
[2]
  Kd: 1.1 nM
[3]
  Kd: 26 nM
[4]
  EC50 (read off the curve): ~1 nM
[5]
  Kd: 26 nM
[6]
  EC50 (read off the curve): ~1 nM
[7]
  Kd: 23 nM
[8]
  Kd: 4.6 nM
[9]
  EC50 of cytotoxicity (MSTO-211H target cells with human PBMC): 0.007 nM
[10]
  Kd: 0.9 nM
[11]
  Kd: 24 nM
[12]
  EC50 (read off the curve): ~5 nM

B2: Tb535C, chimeric 5T4xCD3 Tribody fusion protein based on murine 5T4 binders (bispecific antibody)
chain 1: EVQLQQSGPDLVKPGASVKISCKASGYSFTGYYMHWVKQSPGKGLEWIGRINPNNGVTLYNQKFKDKATLTVDKSSTTAYMELRSLTSEDSAVYYCARSTMITNYVMDYWGQGTSVTVSSASTKGPSVFPLAPSSKSTSGGTAALGCLVKDYFPEPVTVSWNSGALTSGVHTFPAVLQSSGLYSLSSVVTVPSSSLGTQTYICNVNHKPSNTKVDKKVEPKSCDKTHTGPGGGSPGQVQLVQSGAELKKPGASVKVSCKASGYTFTRYTMHWVRQAPGQCLEWMGYINPSRGYTNYNQKFKDKATLTADKSTSTAYMELRSLRSDDTAVYYCARYYDDHYSLDYWGQGTLVTVSSASGGGGSGGGGSGGGGSAGDIQLTQSPSILSASVGDRVTITCRASSSVSYMNWYQQKPGKAPKRWIYDTSKVASGVPYRFSGSGSGTEYTLTISSMQPEDFATYYCQQWSSNPLTFGCGTKVEIK
chain 2: SIVMTQTPTSLLVSAGDRVTITCKASQSVSNDVAWYQQKPGQSPKLLISYTSSRYAGVPDRFSGSGYGTDFTLTISSVQAEDAAVYFCQQDYNSPPTFGGGTKLEIKRTVAAPSVFIFPPSDEQLKSGTASVVCLLNNFYPREAKVQWKVDNALQSGNSQESVTEQDSKDSTYSLSSTLTLSKADYEKHKVYACEVTHQGLSSPVTKSFNRGECGPGGGSPGEVQLVQSGPDDVKPGGSVKISCKASGYSFTGYYMHWVKQSPGKCLEWIGRINPNNGVTLYNQKFKDKATLTVDKSSTTAYMELRSLTSEDSAVYYCARSTMITNYVMDYWGQGTLVTVSSASGGGGSGGGGSGGGGSAGDIVMTQTPTSLLVSAGDRVTITCKASQSVSNDVAWYQQKPGQSPKLLISYTSSRYAGVPDRFSGSGYGTDFTLTISSVQAEDAAVYFCQQDYNSPPTFGCGTKLEIKSG
notes: Heterodimer through CH1:CL; also called Tribody based on the murine variable domains
[2]
  Kd: 0.8 nM
[4]
  EC50 (read off the curve): ~0.7 nM
[7]
  Kd: 30 nM
[9]
  EC50 of cytotoxicity (MSTO-211H target cells with human PBMC): 0.01 nM
[10]
  Kd: 1 nM

B3: dsFv(5T4), humanized VH(5T4) SEQ ID 6 and VL(5T4) SEQ ID 19 in dsFv format (scFv)
scFv: QVQLVQSGAEVKKPGASVKVSCKASGYSFTSYYMHWVKQSPGQCLEWIGRINPNNGVTLYNQKFKDRVTMTRDTSISTAYMELSRLRSDDTAVYYCARSTMITNYVMDYWGQGTLVTVSSASGGGGSGGGGSGGGGSAGDIVMTQSPDSLAVSLGERATINCKASQSVSNDVAWYQQKPGQPPKLLIYYTSSRYAGVPDRFSGSGSGTDFTLTISSLQAEDVAVYYCQQDYNSPPTFGCGTKLEIK
notes: also called dsFvhu5T4; scFv
[6]
  EC50 (read off the curve): ~1 nM
[10]
  Kd: 2.3 nM

B4: Fab(5T4), humanized VH(5T4) SEQ ID 6 and VL(5T4) SEQ ID 19 in Fab format (Fab, V domains shown)
VH: QVQLVQSGAEVKKPGASVKVSCKASGYSFTSYYMHWVKQSPGQGLEWIGRINPNNGVTLYNQKFKDRVTMTRDTSISTAYMELSRLRSDDTAVYYCARSTMITNYVMDYWGQGTLVTVSS
VL: DIVMTQSPDSLAVSLGERATINCKASQSVSNDVAWYQQKPGQPPKLLIYYTSSRYAGVPDRFSGSGSGTDFTLTISSLQAEDVAVYYCQQDYNSPPTFGGGTKLEIK
notes: Fab format
[6]
  EC50 (read off the curve): ~2 nM
[10]
  Kd: 2.9 nM

B5: IgG(5T4), humanized VH(5T4) SEQ ID 6 and VL(5T4) SEQ ID 19 in IgG format (antibody, V domains shown)
VH: QVQLVQSGAEVKKPGASVKVSCKASGYSFTSYYMHWVKQSPGQGLEWIGRINPNNGVTLYNQKFKDRVTMTRDTSISTAYMELSRLRSDDTAVYYCARSTMITNYVMDYWGQGTLVTVSS
VL: DIVMTQSPDSLAVSLGERATINCKASQSVSNDVAWYQQKPGQPPKLLIYYTSSRYAGVPDRFSGSGSGTDFTLTISSLQAEDVAVYYCQQDYNSPPTFGGGTKLEIK
notes: also called IgG1(5T4)
[10]
  Kd: 0.7 nM

B6: BiTE format, scFv(5T4)-scFv(CD3) fusion with humanized VH(5T4) SEQ ID 6 and VL(5T4) SEQ ID 19 (bispecific antibody, V domains shown)
VH: QVQLVQSGAEVKKPGASVKVSCKASGYSFTSYYMHWVKQSPGQGLEWIGRINPNNGVTLYNQKFKDRVTMTRDTSISTAYMELSRLRSDDTAVYYCARSTMITNYVMDYWGQGTLVTVSS
VL: DIVMTQSPDSLAVSLGERATINCKASQSVSNDVAWYQQKPGQPPKLLIYYTSSRYAGVPDRFSGSGSGTDFTLTISSLQAEDVAVYYCQQDYNSPPTFGGGTKLEIK
notes: The molecule is a single polypeptide, scFv(5T4)-scFv(CD3); also called scFv-scFv format
[10]
  Kd: 2 nM

— US20170342160A1 (CHIOME BIOSCIENCE, published 2017)
